Columns and labels:
protein A [1] = target: protein A (UniProt P38507); test: phage ELISA on coated protein A; heat/cool assay, % of untreated sample (n = 2)
protein A [2] = target: protein A (UniProt P38507); test: phage ELISA on coated protein A; heat/cool assay, % of untreated sample

Row | Substance | Retained binding to protein A (%) (protein A [1]) | Retained binding to protein A (%) (protein A [2])
1 | DP47 VH S35D + SYA_31-33_DDD | 76.7% | 
2 | DP47 VH S35D + YA_32/33_DD |  | 70.4%
3 | DP47 VH T28D + SYA_31-33_DDD | 74.9% | 
4 | DP47 VH T28D + SYA_31-33_DDD + S35D | 78.6% | 
5 | DP47 VH T28D + YA_32/33_DD | 76.1% | 
